Experimental data published in paper PMC9482650, “Quantitative fragmentomics allow affinity mapping of interactomes” (Nature Communications, 2022).

T1: APBA2_2, Q99767
T1 sequence (Q99767 654-744, limits assumed, looked up): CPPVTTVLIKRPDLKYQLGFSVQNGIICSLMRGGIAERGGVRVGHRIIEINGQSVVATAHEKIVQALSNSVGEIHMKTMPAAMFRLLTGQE

T2: GRIP1_4, Q9Y3R0
T2 sequence (Q9Y3R0 467-571, limits assumed, looked up): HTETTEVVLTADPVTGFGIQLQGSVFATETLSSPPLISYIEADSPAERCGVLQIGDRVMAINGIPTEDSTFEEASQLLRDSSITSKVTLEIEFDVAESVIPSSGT

T3: LRRC7, Q96NW7
T3 sequence (Q96NW7 1440-1537, limits assumed, looked up): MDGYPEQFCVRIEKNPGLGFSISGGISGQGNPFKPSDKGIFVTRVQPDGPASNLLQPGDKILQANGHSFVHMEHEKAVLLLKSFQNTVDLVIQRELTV

T4: MPDZ_5, O75970
T4 sequence (O75970 695-796, limits assumed, looked up): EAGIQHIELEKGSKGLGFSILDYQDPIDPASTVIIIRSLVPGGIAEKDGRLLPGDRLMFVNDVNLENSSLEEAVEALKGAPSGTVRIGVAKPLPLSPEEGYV

T5: MPP2, Q14168
T5 sequence (Q14168 180-250, limits assumed, looked up): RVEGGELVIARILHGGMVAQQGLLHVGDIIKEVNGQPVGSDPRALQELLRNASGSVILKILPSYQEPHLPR

T6: MPP6, Q9NZW5
T6 sequence (Q9NZW5 125-219, limits assumed, looked up): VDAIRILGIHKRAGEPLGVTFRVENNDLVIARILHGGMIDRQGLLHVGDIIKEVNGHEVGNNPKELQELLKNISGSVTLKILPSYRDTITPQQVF

T7: MPP7, Q5T2T1
T7 sequence (Q5T2T1 134-230, limits assumed, looked up): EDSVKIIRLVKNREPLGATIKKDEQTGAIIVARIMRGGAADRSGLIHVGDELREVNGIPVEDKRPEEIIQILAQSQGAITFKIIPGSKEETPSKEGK

T8: NHERF3_1, Q5T2W1
T8 sequence (Q5T2W1 4-100, limits assumed, looked up): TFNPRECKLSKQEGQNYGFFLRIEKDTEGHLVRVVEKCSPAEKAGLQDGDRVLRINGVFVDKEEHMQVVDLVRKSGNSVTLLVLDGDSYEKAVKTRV

T9: PDZD2_2, O15018
T9 sequence (O15018 329-429, limits assumed, looked up): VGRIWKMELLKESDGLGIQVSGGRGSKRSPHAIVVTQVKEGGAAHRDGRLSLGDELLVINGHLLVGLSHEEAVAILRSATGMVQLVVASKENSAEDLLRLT

T10: PDZD7_3, Q9H5P4
T10 sequence (Q9H5P4 857-944, limits assumed, looked up): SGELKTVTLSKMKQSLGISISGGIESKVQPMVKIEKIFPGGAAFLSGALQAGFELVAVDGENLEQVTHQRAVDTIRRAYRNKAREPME

T11: RHPN1, Q8TCX5
T11 sequence (Q8TCX5 508-602, limits assumed, looked up): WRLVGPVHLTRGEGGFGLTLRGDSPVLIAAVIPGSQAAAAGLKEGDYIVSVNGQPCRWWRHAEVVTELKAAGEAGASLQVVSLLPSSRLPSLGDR

T12: SYNJ2BP, P57105
T12 sequence (P57105 8-110, limits assumed, looked up): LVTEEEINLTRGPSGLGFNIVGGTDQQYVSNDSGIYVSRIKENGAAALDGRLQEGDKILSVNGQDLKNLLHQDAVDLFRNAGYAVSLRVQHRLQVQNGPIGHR

T13: TJP3_3, O95049
T13 sequence (O95049 375-456, limits assumed, looked up): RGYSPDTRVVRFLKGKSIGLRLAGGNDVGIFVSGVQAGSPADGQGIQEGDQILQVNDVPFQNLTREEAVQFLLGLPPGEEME


Tests used:
Test in all cases: holdup assay
Design in all cases: key: below the threshold = too weak to quantify, mostly under pKd 3.1 to 4
Conditions in all cases: plain residues with an end cap or a label only (N-terminal biotin on a linker: ado-ado)
APBA2_2, Q99767 = molecular target: T1, APBA2_2, Q99767
DLG1_1, Q12959 = molecular target: DLG1_1, Q12959
DLG4_3, P78352 = molecular target: DLG4_3, P78352
Sequence of DLG4_3, P78352 (P78352 306-403): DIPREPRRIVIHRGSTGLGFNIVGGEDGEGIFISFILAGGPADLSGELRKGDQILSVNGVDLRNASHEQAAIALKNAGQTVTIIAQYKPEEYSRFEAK

FRMPD2_3, Q68DX3 = molecular target: FRMPD2_3, Q68DX3
Sequence of FRMPD2_3, Q68DX3 (Q68DX3 1073-1166): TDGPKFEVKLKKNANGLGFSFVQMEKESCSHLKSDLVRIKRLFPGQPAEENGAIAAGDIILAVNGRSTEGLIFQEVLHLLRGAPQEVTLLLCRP

GORASP1, Q9BQQ3 = molecular target: GORASP1, Q9BQQ3
Sequence of GORASP1, Q9BQQ3 (Q9BQQ3 1-208): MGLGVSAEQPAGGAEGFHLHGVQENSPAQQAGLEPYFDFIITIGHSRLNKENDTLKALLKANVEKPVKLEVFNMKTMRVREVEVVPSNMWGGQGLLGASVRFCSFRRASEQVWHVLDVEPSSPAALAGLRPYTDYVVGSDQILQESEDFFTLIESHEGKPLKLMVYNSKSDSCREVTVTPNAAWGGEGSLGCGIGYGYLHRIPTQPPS

GRIP1_4, Q9Y3R0 = molecular target: T2, GRIP1_4, Q9Y3R0
GRIP2_6, Q9C0E4 = molecular target: GRIP2_6, Q9C0E4
Sequence of GRIP2_6, Q9C0E4 (Q9C0E4 648-740): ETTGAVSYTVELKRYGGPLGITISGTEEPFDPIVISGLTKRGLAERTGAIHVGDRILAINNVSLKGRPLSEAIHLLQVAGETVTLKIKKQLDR

HTRA2, O43464 = molecular target: HTRA2, O43464
Sequence of HTRA2, O43464 (O43464 355-458): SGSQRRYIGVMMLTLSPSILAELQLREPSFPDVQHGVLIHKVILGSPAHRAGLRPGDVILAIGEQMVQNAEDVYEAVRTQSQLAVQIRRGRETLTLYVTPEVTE

IL16_1, Q14005 = molecular target: IL16_1, Q14005
Sequence of IL16_1, Q14005 (Q14005 210-306): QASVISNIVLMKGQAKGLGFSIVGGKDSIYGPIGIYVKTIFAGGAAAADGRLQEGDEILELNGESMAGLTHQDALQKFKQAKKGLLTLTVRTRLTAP

LNX1_1, Q8TBB1 = molecular target: LNX1_1, Q8TBB1
Sequence of LNX1_1, Q8TBB1 (Q8TBB1 261-371): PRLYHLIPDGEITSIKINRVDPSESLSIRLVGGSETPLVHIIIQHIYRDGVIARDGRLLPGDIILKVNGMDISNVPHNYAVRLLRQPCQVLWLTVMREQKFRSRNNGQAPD

LNX1_2, Q8TBB1 = molecular target: LNX1_2, Q8TBB1
Sequence of LNX1_2, Q8TBB1 (Q8TBB1 371-470): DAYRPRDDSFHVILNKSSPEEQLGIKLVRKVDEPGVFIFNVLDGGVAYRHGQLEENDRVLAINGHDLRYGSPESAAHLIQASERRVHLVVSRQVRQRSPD

LRRC7, Q96NW7 = molecular target: T3, LRRC7, Q96NW7
MAGI1_2, Q96QZ7 = molecular target: MAGI1_2, Q96QZ7
Sequence of MAGI1_2, Q96QZ7 (Q96QZ7 456-580): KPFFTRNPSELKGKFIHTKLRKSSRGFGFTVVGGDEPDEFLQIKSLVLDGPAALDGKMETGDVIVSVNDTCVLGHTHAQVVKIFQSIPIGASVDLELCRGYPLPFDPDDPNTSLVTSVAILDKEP

MAGI2_4, Q86UL8 = molecular target: MAGI2_4, Q86UL8
Sequence of MAGI2_4, Q86UL8 (Q86UL8 772-865): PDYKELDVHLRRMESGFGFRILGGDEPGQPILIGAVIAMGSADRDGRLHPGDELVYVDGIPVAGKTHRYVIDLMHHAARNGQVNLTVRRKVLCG

MPDZ_5, O75970 = molecular target: T4, MPDZ_5, O75970
MPP2, Q14168 = molecular target: T5, MPP2, Q14168
MPP6, Q9NZW5 = molecular target: T6, MPP6, Q9NZW5
MPP7, Q5T2T1 = molecular target: T7, MPP7, Q5T2T1
NHERF3_1, Q5T2W1 = molecular target: T8, NHERF3_1, Q5T2W1
PDZD2_2, O15018 = molecular target: T9, PDZD2_2, O15018
PDZD7_3, Q9H5P4 = molecular target: T10, PDZD7_3, Q9H5P4
RHPN1, Q8TCX5 = molecular target: T11, RHPN1, Q8TCX5
SCRIB_2, Q14160 = molecular target: SCRIB_2, Q14160
Sequence of SCRIB_2, Q14160 (Q14160 857-960): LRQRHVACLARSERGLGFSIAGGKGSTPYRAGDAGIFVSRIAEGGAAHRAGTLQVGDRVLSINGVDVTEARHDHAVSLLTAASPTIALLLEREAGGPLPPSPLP

SYNJ2BP, P57105 = molecular target: T12, SYNJ2BP, P57105
TJP3_3, O95049 = molecular target: T13, TJP3_3, O95049

Binder	pKd (APBA2_2, Q99767)	pKd (DLG1_1, Q12959)	pKd (DLG4_3, P78352)	pKd (FRMPD2_3, Q68DX3)	pKd (GORASP1, Q9BQQ3)	pKd (GRIP1_4, Q9Y3R0)	pKd (GRIP2_6, Q9C0E4)	pKd (HTRA2, O43464)	pKd (IL16_1, Q14005)	pKd (LNX1_1, Q8TBB1)	pKd (LNX1_2, Q8TBB1)	pKd (LRRC7, Q96NW7)	pKd (MAGI1_2, Q96QZ7)	pKd (MAGI2_4, Q86UL8)	pKd (MPDZ_5, O75970)	pKd (MPP2, Q14168)	pKd (MPP6, Q9NZW5)	pKd (MPP7, Q5T2T1)	pKd (NHERF3_1, Q5T2W1)	pKd (PDZD2_2, O15018)	further results
GIKKITSTAL [RPS6KA3, P51812]	below the threshold	4.05	3.87	3.5	3.59	3.62	3.88	3.55	3.5	3.8	below the threshold	below the threshold	4.5	3.8	below the threshold	below the threshold	below the threshold	below the threshold	5.64	3.57	pKd (PDZD7_3, Q9H5P4): 4.92; pKd (RHPN1, Q8TCX5): 3.93; pKd (SCRIB_2, Q14160): 3.49; pKd (SYNJ2BP, P57105): 4.52; pKd (TJP3_3, O95049): below the threshold
TISFTQTSQF [SLC1A1, P43005]	below the threshold	below the threshold	below the threshold	below the threshold	below the threshold	below the threshold	below the threshold	below the threshold	below the threshold	below the threshold	below the threshold	below the threshold	below the threshold	3.58	below the threshold	below the threshold	below the threshold	below the threshold	4.73	below the threshold	pKd (PDZD7_3, Q9H5P4): below the threshold; pKd (RHPN1, Q8TCX5): 3.73; pKd (SCRIB_2, Q14160): below the threshold; pKd (SYNJ2BP, P57105): below the threshold; pKd (TJP3_3, O95049): below the threshold
DFLSTFHIRI [CIB2, O75838]	below the threshold	below the threshold	3.5	below the threshold	4.59	3.9	4.58	3.5	below the threshold	below the threshold	below the threshold	below the threshold	below the threshold	below the threshold	below the threshold	below the threshold	below the threshold	4.46	below the threshold	3.71	pKd (PDZD7_3, Q9H5P4): below the threshold; pKd (RHPN1, Q8TCX5): below the threshold; pKd (SCRIB_2, Q14160): below the threshold; pKd (SYNJ2BP, P57105): below the threshold; pKd (TJP3_3, O95049): below the threshold
NNNVVKVDSV [MTNR1A, P48039]	below the threshold	below the threshold	below the threshold	below the threshold	below the threshold	below the threshold	below the threshold	below the threshold	below the threshold	below the threshold	below the threshold	below the threshold	below the threshold	below the threshold	below the threshold	below the threshold	below the threshold	below the threshold	below the threshold	3.98	pKd (PDZD7_3, Q9H5P4): below the threshold; pKd (RHPN1, Q8TCX5): below the threshold; pKd (SCRIB_2, Q14160): below the threshold; pKd (SYNJ2BP, P57105): below the threshold; pKd (TJP3_3, O95049): below the threshold
NVYGIESVKI [GRIA2, P42262]	3.6	below the threshold	below the threshold	3.49	3.58	below the threshold	3.64	below the threshold	below the threshold	4.07	below the threshold	3.49	below the threshold	below the threshold	below the threshold	below the threshold	below the threshold	below the threshold	below the threshold	3.63	pKd (PDZD7_3, Q9H5P4): below the threshold; pKd (RHPN1, Q8TCX5): 3.81; pKd (SCRIB_2, Q14160): 3.49; pKd (SYNJ2BP, P57105): 3.52; pKd (TJP3_3, O95049): below the threshold
PSHPRLQTHV [KIRREL2, Q6UWL6]	below the threshold	4.24	3.86	below the threshold	below the threshold	below the threshold	below the threshold	below the threshold	below the threshold	below the threshold	below the threshold	below the threshold	4.85	3.62	below the threshold	below the threshold	3.59	below the threshold	4.57	4.23	pKd (PDZD7_3, Q9H5P4): 4.61; pKd (RHPN1, Q8TCX5): 4.11; pKd (SCRIB_2, Q14160): 3.76; pKd (SYNJ2BP, P57105): 4.48; pKd (TJP3_3, O95049): below the threshold
